The target of the assay is mouse recombinant His-calmodulin (mouse), P0DP26.

One may read the Kd as the concentration at which binding is half-saturated. Turning to INLKALAALAKKIL (modifications not checked) [Mastoparan, P01514 1-14], the Kd worked out at 1.2 nM.

The values above are taken from EP4036575A1.
